This passage reports Km and Vmax results from patent US6461841B2, “L-amino acid oxidase from Rhodococcus species” (Degussa AG, priority 2000, dated 2002).

What all share (assay): purified protein, by the assay type
Conditions in all cases: other: 0.2 M TEA-HCl buffer, pH 7.6, 30° C.

Substrate in series [1]: N[C@@H](CO)C(=O)O
Type of series: biochemical. The method, then:
(§1) To determine the kinetic constants, the reaction speed of oxidation was studied at different concentrations of amino acid and for different L-amino acids, under the following conditions (tests in microtiter plates):
(§2) 0.2 M TEA-HCl buffer, pH 7.6; 0.2 mg/mL o-dianisidine; 25 U/mL POX; L-amino acid oxidase in limiting amounts; varying concentrations of the different L-amino acids. Activity measurement was conducted by photometry at 450 nm and 30° C.
(§3) The kinetic constants Vmax.

Substrate in series [2]: N=C(N)NCCC[C@H](N)C(=O)O
The series is classed as biochemical. As to the method: as §1, §2, §3

Substrate in series [3]: N[C@@H](Cc1ccccc1)C(=O)O
The series is classed as biochemical. The method, then:
as §1, §2, §3

Substrate in series [4]: NC(=O)C[C@H](N)C(=O)O
The series is classed as biochemical. As to the method: as §1, §2, §3

Substrate in series [5]: CSCC[C@H](N)C(=O)O
Type of series: biochemical. The method, then:
as §1, §2, §3

Substrate in series [6]: NCCCC[C@H](N)C(=O)O
The series is classed as biochemical. The method, then:
as §1, §2, §3

Substrate in series [7]: C[C@H](N)C(=O)O
Type of series: biochemical. As to the method: as §1, §2, §3

Substrate in series [8]: NC(=O)NCCC[C@H](N)C(=O)O
The series is classed as biochemical. The method, then: as §1, §2, §3

Substrate in series [9]: CC[C@H](C)[C@H](N)C(=O)O
Substrate in series [10]: CC(C)[C@H](N)C(=O)O
Substrate in series [11]: NCCC[C@H](N)C(=O)O
Substrate in series [12]: NC(=O)CC[C@H](N)C(=O)O
Substrate in series [13]: CC(C)C[C@H](N)C(=O)O

Where “and” joins values, the source holds several entries; their conditions need not be identical. Equal entries are not always repeated.

B1: L-amino acid oxidase from Rhodococcus opacus (Rhodococcus opacus) (protein)
chain: AGDLIGKVKGSHSVVVLGGGPAGLCSAFELQKAGYKVTVLEARTRPGGRVWTARGGSEETDLSGETQKCTFSEGHFYNVGATRIPQSHITLDYCRELGVEIQGFGNQNANTFVNYQSDTSLSGQSVTYRAAKADTFGYMSELLKKATDQGALDQVLSREDKDALSEFLSDFGDLSDDGRYLGSSRRGYDSEPGAGLNFGTEKKPFAMQEVIRSGIGRNFSFDFGYDQAMMMFTPVGGMDRIYYAFQDRIGTDNIVFGAEVTSMKNVSEGVTVEYTAGGSKKSITADYAICTIPPHLVGRLQNNLPGDVLTALKAAKPSSSGKLGIEYSRRWWETEDRIYGGASNTDKDISQIMFPYDHYNSDRGVVVAYYSSGKRQEAFESLTHRQRLAKAIAEGSEIHGEKYTRDISSSFSGSWRRTKYSESAWANWAGSGGSHGGAATPEYEKLLEPVDKIYFAGDHLSNAIAWQHGALTSARDVVTHIHERVAQEA
notes: made in house; host or cells: Rhodococcus opacus DSM 43250, the natural producer; purified from crude cell extract, not recombinant
Take B1: the Km amounted to 1360 µM in series [1]; 70 µM in series [2]; 19 µM in series [3]; 28 µM in series [4]; 39 µM in series [5]; 15 µM in series [6]. Moreover, the Km in series [7] came out at 274 µM; in series [8], 26 µM; in series [9] it was 5110 µM; in [10] it was 3730 µM; in series [11] it was 34 µM; in series [13] it was 28 µM. For the same protein, the Vmax was 4.36 µmol/min/mg in series [1]; 8.12 µmol/min/mg in [2]; 5.64 µmol/min/mg in series [3]; 5.37 µmol/min/mg in [4]; 3.56 µmol/min/mg in series [6]; 4.27 µmol/min/mg in series [7]. Also, the Vmax was 5.47 µmol/min/mg in series [8]; 2.84 µmol/min/mg in series [9]; 1.93 µmol/min/mg in series [10]; 7.48 µmol/min/mg in series [11]; 5.06 µmol/min/mg and 2.32 µmol/min/mg in [12]; 6.45 µmol/min/mg in series [13].

Broadly, the Km is the concentration of substrate that gives half-maximal velocity. The Vmax is the rate approached at saturating substrate.
